Laboratory results from PMC6640694.

What was measured:
Test in all cases: BLI; Octet Red96; 5 μg/mL antibody loaded onto Protein A biosensor, dipped into His-tagged OX40 extracellular domain at 200, 100 and 50 nM or 1600, 800 and 400 nM; 1:1 binding model, global fit
tOX40.50 = biological target: tOX40.50
tOX40.22 = biological target: tOX40.22
tOX40.21 = biological target: tOX40.21
tOX40.37 = biological target: tOX40.37
tOX40.31 = biological target: tOX40.31
tOX40.35 = biological target: tOX40.35
tOX40.54 = biological target: tOX40.54
tOX40.19 = biological target: tOX40.19
tOX40.4 = biological target: tOX40.4
tOX40.40 = biological target: tOX40.40
tOX40.39 = biological target: tOX40.39
tOX40.23 = biological target: tOX40.23
tOX40.41 = biological target: tOX40.41
tOX40.15 = biological target: tOX40.15

B1: recombinant His-tagged human OX40 extracellular domain (domain or fragment)
chain: LHCVGDTYPSNDRCCHECRPGNGMVSRCSRSQNTVCRPCGPGFYNDVVSSKPCKPCTWCNLRSGSERKQLCTATQDTVCRCRAGTQPLDSYKPGVDCAPCPPGHFSPGDNQACKPWTNCTLAGKHTLQPASNSSDAICEDRDPPATQPQETQGPPARPITVQPTEAWPRTSQGPSTRPVEVPGGRA
**Q.** For B1, which Kd (tOX40.50) is on record?
**A.** Its Kd is 29.8 nM.

**Q.** And the Kd (tOX40.22)?
**A.** The Kd was 7.3 nM.

**Q.** And the Kd (tOX40.21)?
**A.** Its Kd is 7 nM.

**Q.** And the Kd (tOX40.37)?
**A.** The Kd was 12.5 nM.

**Q.** And the Kd (tOX40.31)?
**A.** Its Kd is 22.4 nM.

**Q.** What about the Kd (tOX40.35) of the same binder?
**A.** Its Kd is 2.7 nM.

**Q.** And the Kd (tOX40.54)?
**A.** The Kd was 184 nM.

**Q.** And the Kd (tOX40.19)?
**A.** The Kd was 7.7 nM.

**Q.** What about the Kd (tOX40.4) of the same binder?
**A.** Its Kd is 9 nM.

**Q.** What about the Kd (tOX40.40) of the same binder?
**A.** The Kd was 151 nM.

**Q.** And the Kd (tOX40.39)?
**A.** The Kd was 90 nM.

**Q.** What about the Kd (tOX40.23) of the same binder?
**A.** Its Kd is 5.2 nM.

**Q.** What about the Kd (tOX40.41) of the same binder?
**A.** Its Kd is 58.4 nM.

**Q.** What about the Kd (tOX40.15) of the same binder?
**A.** Its Kd is 6 nM.
